One data set deals with T1, I-AniI (Aspergillus nidulans, UniProt P03880 237-488).
T1 sequence: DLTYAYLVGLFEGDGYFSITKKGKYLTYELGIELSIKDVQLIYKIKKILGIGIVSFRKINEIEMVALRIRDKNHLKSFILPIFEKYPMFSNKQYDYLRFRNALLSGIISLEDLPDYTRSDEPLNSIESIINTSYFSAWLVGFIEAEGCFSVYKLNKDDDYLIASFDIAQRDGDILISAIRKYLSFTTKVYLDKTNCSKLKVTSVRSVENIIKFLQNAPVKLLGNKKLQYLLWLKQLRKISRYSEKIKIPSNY
The data set can be described thus: ITC. (In general: ITC needs no label: the signal is the heat of the interaction.)

The target in another data set is T2, I-PpoI (Physarum polycephalum, UniProt Q94702 1-163).
T2 sequence: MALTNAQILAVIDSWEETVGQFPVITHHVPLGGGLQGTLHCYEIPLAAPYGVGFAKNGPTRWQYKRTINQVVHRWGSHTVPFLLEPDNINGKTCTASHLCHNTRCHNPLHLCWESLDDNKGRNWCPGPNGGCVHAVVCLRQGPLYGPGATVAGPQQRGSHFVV
The data set can be described thus: ITC.

Changes are numbered by the printed parent chain.

In PMC2175346 one finds Kd data, which are given here for 4 molecules.

B1: I-AniI WT site (dsDNA)
DNA 1: CCTTCCCTGAGGAGGTTTCTCTGTAAACCCTTCC
DNA 2: GGAAGGGTTTACAGAGAAACCTCCTCAGGGAAGG
For the molecule B1, the dissociation constant Kd in the data set with I-AniI is 96 ± 10 nM.

B2: I-AniI WT-OPT site (dsDNA)
DNA 1: B1 DNA 1 with T18A, A25T
DNA 2: B1 DNA 2 with T10A, A17T
Consider B2, for which, in the data set with I-AniI, the Kd was 8 ± 1 nM.

B3: I-PpoI RR palindrome (dsDNA)
DNA 1: GGGGGTGCAGTGGCTACCTTAAGGTAGCCAGACGTGGGGG
DNA 2: CCCCCACGTCTGGCTACCTTAAGGTAGCCACTGCACCCCC
For the molecule B3, the Kd in the data set with I-PpoI came to 23 ± 1.6 nM.

B4: I-PpoI LL palindrome (dsDNA)
DNA 1: GGGGGTGCAGTGACTCTCTTAAGAGAGTCAGACGTGGGGG
DNA 2: CCCCCACGTCTGACTCTCTTAAGAGAGTCACTGCACCCCC
Molecule B4 gave a Kd with I-PpoI of 87 ± 8.8 nM.

The term Kd denotes the concentration at which binding is half-saturated. Lower therefore signals a tighter complex.
